Assay results taken from patent publication US12006356 (JUNO THERAPEUTICS, dated 2024).

Experiments:
[1] = target: T1, murine CCT5 (mouse, UniProt P80316 2-541); test: immunoprecipitation and Western blot, B16-F10 cells
T1 construct: Endogenous CCT5 in B16-F10 melanoma cells; also called mouse CCT5

[2] = target: T2, human CCT5 (human, UniProt P48643 2-541, limits assumed); test: immunoprecipitation from cytosolic and plasma membrane lysate fractions, Western blot for CCT5
T2 construct: also called Chaperonin Containing TCP1 Subunit 5; TRiC protein CCT5
Text: Cytosolic and plasma membrane (surface) lysate preparations of SK-BR-3 and OvCar3 cells were probed by Western blot for CCT5 after immunoprecipitation with the antibody identified Example 1, or a negative control antibody, Panitumumab.

[3] = target: SNRNP200 (UniProt O75643 1-2136, limits assumed); test: immunoprecipitation from OvCar8, SKBR3 and MIAPACA2 lysates, Western blot with rabbit polyclonal antibodies
Description: (§1) A. Immunoprecipitation and Mass Spectrometry to Identify Candidate Target Proteins Whole cell lysates of exemplary ovarian or leukemia cell lines were used for immunoprecipitation experiments with the antibody identified in Example 1. The identified antibody was covalently conjugated to magnetic epoxy beads, and 10 µg of bead-bound antibody were incubated with 1-2 mL whole cell lysate (at 1 mg protein/mL lysate) of ovarian carcinoma cell line (OvCar8) or acute myeloid leukemia cell line (SKM1). The cell lysates were also incubated with control antibodies known to bind the cell line, or beads alone. The immunoprecipitates were then washed and eluted first with low pH, and second with a cationic detergent elution buffer. The eluates were resolved by SDS-PAGE and stained with a protein stain to visualize the bands.
(§2) The immunoprecipitation with the identified antibody was repeated, with OvCar8 cells and also SKBR3 (breast cancer) and MIAPACA2 (pancreas carcinoma) cell lines. The eluates were resolved by SDS-PAGE, transferred for Western blot analysis using rabbit polyclonal antibodies specific to the top 10 candidate proteins identified in part A: RalGapa2, RalGapB, SPTAN1, IMPDH2, DNAJC13, SPTAN1, SNRNP200, PRPF8, CCT4, and CCT2. CCT2 and CCT4 were specifically detected in the immunoprecipitates from all assessed cancer cell lines. No bands corresponding to the other proteins were detected. CCT2 and CCT4 are both part of the TCP1 ring complex (TRiC).

[4] = target: RalGapa2 (UniProt Q2PPJ7 1-1873, limits assumed); test: as above
Chain of RalGapa2 (Q2PPJ7 whole entry): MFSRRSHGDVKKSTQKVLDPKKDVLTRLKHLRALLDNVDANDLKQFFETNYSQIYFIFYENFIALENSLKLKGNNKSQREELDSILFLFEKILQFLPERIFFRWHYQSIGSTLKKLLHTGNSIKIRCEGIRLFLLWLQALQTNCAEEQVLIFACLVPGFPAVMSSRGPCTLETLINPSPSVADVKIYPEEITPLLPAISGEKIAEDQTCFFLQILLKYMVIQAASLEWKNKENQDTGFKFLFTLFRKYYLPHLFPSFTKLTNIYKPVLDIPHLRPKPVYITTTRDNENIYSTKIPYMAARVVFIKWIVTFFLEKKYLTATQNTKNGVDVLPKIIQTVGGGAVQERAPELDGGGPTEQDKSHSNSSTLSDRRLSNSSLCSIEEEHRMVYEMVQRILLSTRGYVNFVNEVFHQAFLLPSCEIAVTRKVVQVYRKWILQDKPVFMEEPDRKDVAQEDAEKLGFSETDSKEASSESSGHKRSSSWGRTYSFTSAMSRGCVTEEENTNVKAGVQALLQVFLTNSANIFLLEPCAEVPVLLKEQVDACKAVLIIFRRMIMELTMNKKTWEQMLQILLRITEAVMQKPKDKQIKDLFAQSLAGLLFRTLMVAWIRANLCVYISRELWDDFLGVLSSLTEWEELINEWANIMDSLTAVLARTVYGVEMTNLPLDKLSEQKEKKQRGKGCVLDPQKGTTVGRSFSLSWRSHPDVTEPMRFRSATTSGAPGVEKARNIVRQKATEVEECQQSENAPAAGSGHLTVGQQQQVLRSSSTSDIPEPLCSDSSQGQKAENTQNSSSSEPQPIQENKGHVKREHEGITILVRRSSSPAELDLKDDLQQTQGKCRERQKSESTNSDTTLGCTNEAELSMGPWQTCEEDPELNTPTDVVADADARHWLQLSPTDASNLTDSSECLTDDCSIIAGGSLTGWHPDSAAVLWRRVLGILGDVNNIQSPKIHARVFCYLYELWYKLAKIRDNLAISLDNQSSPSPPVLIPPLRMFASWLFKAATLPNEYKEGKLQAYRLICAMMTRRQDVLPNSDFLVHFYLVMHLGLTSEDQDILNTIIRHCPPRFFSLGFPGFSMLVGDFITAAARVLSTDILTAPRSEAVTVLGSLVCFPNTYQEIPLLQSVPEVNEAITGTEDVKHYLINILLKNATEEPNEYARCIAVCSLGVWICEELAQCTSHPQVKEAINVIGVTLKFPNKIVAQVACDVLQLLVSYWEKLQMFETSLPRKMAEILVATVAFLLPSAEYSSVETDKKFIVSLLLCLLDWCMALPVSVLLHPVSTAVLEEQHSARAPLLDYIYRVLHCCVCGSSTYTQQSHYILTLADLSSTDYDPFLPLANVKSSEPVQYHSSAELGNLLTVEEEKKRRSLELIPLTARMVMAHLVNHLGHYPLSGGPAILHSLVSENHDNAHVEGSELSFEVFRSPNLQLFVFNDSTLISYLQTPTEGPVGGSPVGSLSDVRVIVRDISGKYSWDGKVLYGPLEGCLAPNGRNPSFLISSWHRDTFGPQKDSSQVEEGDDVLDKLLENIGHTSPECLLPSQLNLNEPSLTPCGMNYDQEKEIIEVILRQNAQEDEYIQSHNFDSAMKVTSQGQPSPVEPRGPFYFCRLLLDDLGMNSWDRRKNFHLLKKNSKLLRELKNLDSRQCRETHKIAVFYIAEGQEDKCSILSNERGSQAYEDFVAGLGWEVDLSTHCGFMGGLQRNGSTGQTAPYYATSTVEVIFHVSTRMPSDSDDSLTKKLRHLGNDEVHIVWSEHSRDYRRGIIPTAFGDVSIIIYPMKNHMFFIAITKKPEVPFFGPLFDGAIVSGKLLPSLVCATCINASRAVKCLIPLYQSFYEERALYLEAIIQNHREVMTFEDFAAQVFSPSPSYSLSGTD
Description: as §1, §2

[5] = target: SPTAN1 (UniProt Q13813 1-2472, limits assumed); test: as above
Description: as §1, §2

[6] = target: T3, RalGapB (UniProt Q86X10 1-1494, limits assumed); test: as above
T3 sequence (looked up): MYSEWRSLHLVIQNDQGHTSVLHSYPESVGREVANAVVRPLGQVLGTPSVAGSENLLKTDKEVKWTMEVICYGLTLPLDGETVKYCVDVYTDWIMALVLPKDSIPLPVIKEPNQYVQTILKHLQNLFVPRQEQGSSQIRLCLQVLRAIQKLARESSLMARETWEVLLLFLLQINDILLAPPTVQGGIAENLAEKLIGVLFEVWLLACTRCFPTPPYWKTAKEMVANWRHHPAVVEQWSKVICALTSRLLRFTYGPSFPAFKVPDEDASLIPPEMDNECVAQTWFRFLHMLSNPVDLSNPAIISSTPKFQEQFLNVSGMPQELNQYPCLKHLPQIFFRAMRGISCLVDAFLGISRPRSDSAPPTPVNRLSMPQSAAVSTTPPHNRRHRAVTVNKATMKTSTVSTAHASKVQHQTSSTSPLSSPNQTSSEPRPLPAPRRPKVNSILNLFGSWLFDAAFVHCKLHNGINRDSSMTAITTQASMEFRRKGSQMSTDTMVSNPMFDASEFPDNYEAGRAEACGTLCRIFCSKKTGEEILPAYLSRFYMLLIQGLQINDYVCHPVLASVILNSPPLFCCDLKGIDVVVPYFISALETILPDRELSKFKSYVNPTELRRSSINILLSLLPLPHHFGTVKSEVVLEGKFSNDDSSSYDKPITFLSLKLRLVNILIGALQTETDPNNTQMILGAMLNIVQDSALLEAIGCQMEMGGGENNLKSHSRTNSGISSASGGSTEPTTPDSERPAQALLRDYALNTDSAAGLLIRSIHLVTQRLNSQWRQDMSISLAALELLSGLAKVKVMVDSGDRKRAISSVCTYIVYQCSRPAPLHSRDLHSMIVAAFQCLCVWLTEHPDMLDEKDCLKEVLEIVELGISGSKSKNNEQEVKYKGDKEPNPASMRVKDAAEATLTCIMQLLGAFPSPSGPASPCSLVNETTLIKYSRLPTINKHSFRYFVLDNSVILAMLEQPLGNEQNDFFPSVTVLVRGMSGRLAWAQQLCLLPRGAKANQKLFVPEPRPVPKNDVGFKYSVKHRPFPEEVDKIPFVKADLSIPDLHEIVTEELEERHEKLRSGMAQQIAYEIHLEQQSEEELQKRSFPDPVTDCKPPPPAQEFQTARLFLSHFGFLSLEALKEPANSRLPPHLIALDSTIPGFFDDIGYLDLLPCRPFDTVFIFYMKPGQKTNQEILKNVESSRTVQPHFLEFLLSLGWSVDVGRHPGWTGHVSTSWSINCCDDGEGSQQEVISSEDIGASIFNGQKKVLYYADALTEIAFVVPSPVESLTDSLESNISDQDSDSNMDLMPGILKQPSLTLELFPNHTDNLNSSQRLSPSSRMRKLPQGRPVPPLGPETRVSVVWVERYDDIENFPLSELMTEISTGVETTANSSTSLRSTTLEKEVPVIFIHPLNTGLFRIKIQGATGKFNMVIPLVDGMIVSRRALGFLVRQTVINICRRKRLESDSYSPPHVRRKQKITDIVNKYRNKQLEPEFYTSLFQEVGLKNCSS
Description: as §1, §2

[7] = target: DNAJC13 (UniProt O75165 1-2243); test: as above
Chain of DNAJC13 (O75165 whole entry): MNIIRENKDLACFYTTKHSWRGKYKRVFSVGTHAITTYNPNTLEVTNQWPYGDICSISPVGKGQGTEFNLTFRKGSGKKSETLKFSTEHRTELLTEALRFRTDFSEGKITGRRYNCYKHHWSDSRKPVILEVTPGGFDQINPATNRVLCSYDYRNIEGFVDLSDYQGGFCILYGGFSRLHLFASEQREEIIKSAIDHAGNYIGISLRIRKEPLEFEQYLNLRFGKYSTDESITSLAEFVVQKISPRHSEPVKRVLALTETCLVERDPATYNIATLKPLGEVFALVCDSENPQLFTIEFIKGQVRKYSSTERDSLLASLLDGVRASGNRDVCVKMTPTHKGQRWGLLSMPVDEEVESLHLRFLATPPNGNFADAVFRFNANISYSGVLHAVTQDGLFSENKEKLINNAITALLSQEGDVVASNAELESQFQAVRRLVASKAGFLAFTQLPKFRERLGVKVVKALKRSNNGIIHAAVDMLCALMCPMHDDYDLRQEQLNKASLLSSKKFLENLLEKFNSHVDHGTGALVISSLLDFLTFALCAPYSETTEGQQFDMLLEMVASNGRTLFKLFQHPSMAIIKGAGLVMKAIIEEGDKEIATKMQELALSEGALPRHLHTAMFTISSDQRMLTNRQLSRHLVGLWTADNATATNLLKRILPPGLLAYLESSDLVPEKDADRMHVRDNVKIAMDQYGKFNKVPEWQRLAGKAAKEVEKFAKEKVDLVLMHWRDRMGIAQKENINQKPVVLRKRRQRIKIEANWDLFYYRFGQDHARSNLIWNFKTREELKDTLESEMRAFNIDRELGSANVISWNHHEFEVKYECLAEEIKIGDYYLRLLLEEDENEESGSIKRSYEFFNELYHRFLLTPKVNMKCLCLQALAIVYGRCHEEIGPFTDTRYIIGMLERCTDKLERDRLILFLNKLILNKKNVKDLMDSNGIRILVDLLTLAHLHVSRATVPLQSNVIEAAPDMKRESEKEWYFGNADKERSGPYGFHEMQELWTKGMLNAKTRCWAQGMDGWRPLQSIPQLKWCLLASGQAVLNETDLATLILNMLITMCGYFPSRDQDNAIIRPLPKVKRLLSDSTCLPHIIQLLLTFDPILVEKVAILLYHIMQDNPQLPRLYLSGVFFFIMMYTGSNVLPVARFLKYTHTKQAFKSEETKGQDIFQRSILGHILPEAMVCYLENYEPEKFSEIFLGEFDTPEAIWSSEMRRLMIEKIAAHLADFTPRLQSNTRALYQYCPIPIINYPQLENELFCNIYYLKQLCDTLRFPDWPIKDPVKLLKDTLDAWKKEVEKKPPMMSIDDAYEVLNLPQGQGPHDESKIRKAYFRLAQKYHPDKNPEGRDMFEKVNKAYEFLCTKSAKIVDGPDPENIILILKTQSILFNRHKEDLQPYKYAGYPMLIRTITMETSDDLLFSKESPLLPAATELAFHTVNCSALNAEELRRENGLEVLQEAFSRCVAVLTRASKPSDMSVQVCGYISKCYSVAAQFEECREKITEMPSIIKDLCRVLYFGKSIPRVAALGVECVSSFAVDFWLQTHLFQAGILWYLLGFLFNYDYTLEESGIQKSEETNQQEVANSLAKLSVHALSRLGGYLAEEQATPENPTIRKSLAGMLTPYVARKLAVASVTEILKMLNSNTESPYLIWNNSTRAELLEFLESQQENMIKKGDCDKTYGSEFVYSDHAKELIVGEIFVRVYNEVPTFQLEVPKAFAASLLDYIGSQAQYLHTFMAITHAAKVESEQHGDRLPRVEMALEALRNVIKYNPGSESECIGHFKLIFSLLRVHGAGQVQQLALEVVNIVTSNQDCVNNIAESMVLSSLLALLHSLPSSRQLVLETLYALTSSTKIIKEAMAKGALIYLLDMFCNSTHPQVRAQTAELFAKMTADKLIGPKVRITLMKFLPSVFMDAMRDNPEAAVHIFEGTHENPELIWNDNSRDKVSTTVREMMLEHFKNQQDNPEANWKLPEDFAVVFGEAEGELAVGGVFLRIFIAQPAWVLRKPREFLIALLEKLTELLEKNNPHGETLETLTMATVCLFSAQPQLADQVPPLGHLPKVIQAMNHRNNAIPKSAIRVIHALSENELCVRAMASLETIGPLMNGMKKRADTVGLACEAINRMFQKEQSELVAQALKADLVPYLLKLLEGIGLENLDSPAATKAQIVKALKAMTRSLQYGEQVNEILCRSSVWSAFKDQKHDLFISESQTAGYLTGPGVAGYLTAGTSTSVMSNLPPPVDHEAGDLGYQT
Description: as §1, §2

[8] = target: PRPF8 (UniProt Q6P2Q9 2-2335); test: as above
Description: as §1, §2

T1 sequence (P80316 2-541 limits assumed): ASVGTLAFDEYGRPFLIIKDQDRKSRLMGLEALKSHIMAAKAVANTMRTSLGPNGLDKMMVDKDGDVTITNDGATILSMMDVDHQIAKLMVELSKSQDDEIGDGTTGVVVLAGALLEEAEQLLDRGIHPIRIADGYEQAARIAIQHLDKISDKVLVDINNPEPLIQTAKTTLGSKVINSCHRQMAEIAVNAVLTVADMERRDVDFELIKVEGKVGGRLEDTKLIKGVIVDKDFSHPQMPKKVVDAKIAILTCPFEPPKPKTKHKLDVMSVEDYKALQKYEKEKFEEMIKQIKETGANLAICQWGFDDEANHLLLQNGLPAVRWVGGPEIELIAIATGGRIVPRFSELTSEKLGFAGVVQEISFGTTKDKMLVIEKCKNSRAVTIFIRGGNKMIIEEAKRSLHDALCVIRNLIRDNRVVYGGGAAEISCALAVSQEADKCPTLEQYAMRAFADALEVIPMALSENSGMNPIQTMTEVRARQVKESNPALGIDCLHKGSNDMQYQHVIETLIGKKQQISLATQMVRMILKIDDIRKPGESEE

B1: exemplary anti-CCT5 antibody identified in Example 1 (antibody, V domains shown)
VH: EVQLVESGGGLVQPGGSLRLSCAASGFTFSSYSMNWVRQAPGKGLEWVSYISSSSSTIYYADSVKGRFTISRDNAKNSLYLQMNSLRDEDTAVYYCARDFKGDCSSTSCYRGGYYYYYGMDVWGQGTTVTVSS
VL: SYELTQPPSVSVSPGQTASITCFGDQLGDKYVSWYQKKPGQSPVLVIYQDANRPSGIPERFSGSNSGNTATLTIRGTQNLDEADYYCQTWGTTTALFGGGTKLTVL
notes: For immunoprecipitation it was covalently conjugated to magnetic epoxy beads; also called the identified antibody
B1: binds [1]; binds [2]; no binding [3]. B1: no binding [4]; no binding [5]; no binding [6]. B1: no binding [7]; no binding [8].
